The nature of this data set: label from the status in PepcDB records.

As for “MSSLFVVGIGPGSNDLMTPQASLAIERSEYVIGFSLYVSFIKEKFPNKIYISNGMQGEIERAKKAIELARSGHNVSIISSGDAGIYGIAGAVFEILSTLEDNMPEVSVVPGIS”, the protein production result is reported as “not failed”. Turning to “MSSLILSTFAERLTELGQRTTFLELPPYLDRSFPNSNSGKVVQVGKYLPPEVKHKAVDLLREYKDV”, the protein production entry is recorded as “failed”. Consider “MSSLKGHPKGLYLIFATSTAERFSYYGMRAIFILFLTQALLFDKEAAASIYGSYTGLVYLTPLIGGYIADKYWGIRRSVFWGAVMMAVGQFLMFMSASSLNNTDLAHWLMYGGLGFMILGNGCFKPTVSSLVGQLYEPGDKRLDAAYTIFYMGVNVGSFAAPLICGFLGDTGNPQDFKWGFLASGIMTLFTVVLFETQKNKYLFSPSGEPIGIVPDARREKKEDKAEHISHPKMDKRTKVRNIIIITALTVALIAFFSYAFSDDWISVGIFTACIVFPVLILLDGSLTKVERSRIFVIYIVAFFVIFFWAAYEQAGASLTLFASEQTDRSIFGWEMPASWFQSFNPLFVVILAYIMPGIWGFLNKRNMEPASPTKQAIGLLLLSLGYLFICFGVKDAIPGVKVSMIWLTGLYFIHTMGEIALSPIGLSMVNKLSPLRFASLMMGIWYLSTATANKFAGMLSGLYPEDGKVKSILGYQIATMYDFFMLFVIMSGVASLILFLLSKKLQKMMHGVE”, for which the protein production entry was “failed”. The entry for “MSSNPLRFFVLTIFPHIISCYSEYGIVKQAIKKGKVEVYPIDLREFAPKGQVDDVPYGGLPGMVLKPEPIYEAYDYVVENYGKPFVLITEPWGEKLNQKLVNELSKKERIMIICGRYEGVDERVKKIVDMEISLGDFILSGGEIVALAVIDAVSRVLPGVLSEPQSIQEDSFQNRWLGYPVYTRPREYRGMKVPEELLSGHHKLIELWKLWHRIENTVKKRPDLIPKDLTELEKDILNSILSGKSFKEWLKEHKHLL” is “not failed”; for “MSSNVPADMINLRLILVSGKTKEFLFSPNDSASDIAKHVYDNWPMDWEEEQVSSPNILRLIYQGRFLHGNVTLGALKLPFGKTTVMHLVARETLPEPNSQGQRNR” it is “failed”. In the case of “MSSPNPEDVPRRPEPEPSSSNKKKKKRKWLRQEASIQALTRAGHGALQAGQNHEALNNFQRAFLLASKAPQTRDTPVLQACAFNLGAAYVETGDPARGLELLLRAHPEEKAQGRRHGDQCFNVALAYHALGELPQALAWYHRALGHYQPQGDQGEAWAKMGACYQALGQPELAAHCLQEASQAYAQERQLRAAALALGAAAGCMLKSGRHRVGEVVQVLEKSRRLAERSTERRLLGHLYNDLGLGYSQLQLFPLAVEAFLQALPLCWVPGEQATVLRNLGMAHNALGNYQEAREFHQKAADLHGSVGQRWEQGRSFGSLAFALSQLGDHKAARDNYLHALQAARDSGDMKGQWQACEGLGAAAARLGQYDQALKYYKEALAQCQKEPDSVRERLVAKLADTVRTRLAQVGLVQTHTLTSAPGRLQAPGGASQAEGTPAKAGSSTAGVQHRSSSGWEDEEFEEGHQKKKEERSANVPVRAGPGRPELCFLPGTVNHSHHLASSCPTFTKHTPCRGTVLGKASIYSPGPRAHLPFVGPGPPRAEYPSILVPNGPQANRSSRWPRESLSRSRQRRPMESGICTIV” it was “failed”. The entry for “MSSRKIGLNLVVIVALAALFTGIWALYNRPVSVPDWPERISGFSFSPFRLNQNPQSGRYPSAEQMRTDLELVARHTHSIRTYSVQGALGDIPALAEAFGLRVSLGIWLGPDLASNEAEIARAIRIANESPSVVRVIVGNEALFRREVTAEQLIAYLDRVRAAVKVPVTTAEQWHVYREHPELAQHVDLIAAHVLPYWEATPVADAVDFVLERARELKAAFPRKPLLLAEVGWPSNGRMRGSAEATPADQAIYLRRLTNALNGEGYSYFVIEAFDQPWKVSAEGSVGAYWGVYNADRKAKFNFTGPVVPIPKWRALAIASAVLAVLAFTLLLIDSSSLRQRGRTFLAVVSFACASVLVWIAYDYSQQYSTWFSLTVGALLGVGALGVVIVLFTEAHELAEAVWTRKRRRPFLPITAARAYRPKVSIHVPCYNEPPELLKQTLDALARLDYPDYEVLVIDNNTRDPAVWQPVEAHCARLGERFRFFHVAPLEGFKAGALNFALGHVAADVEVVAVIDADYCVDPDWLRHMVPHFGDPRIAVVQSPQDYRDQHESAFKRLCYAEYKGFFHIGMVTRNDRDAIIEHGTMTMIRRSVLDELRWPEWCITEDAELGLRVFEKGLSAAYFERSYGKGVMPDTFIDFKKQRFRWAYGAIQIMKRHTDALLRGRGPDGSRLTRGQRYHFVAGWLPWIADGLNIFFTLGALLWSAAMIIVPKRVDPPLLIFAILPLALFVFKVGKILFLYRRTVGVDLRDSFFAALAGLSLSHTIAKAVLYGFVTRGIPFFRTPKMRSSHGLLVALAEAREEVFVMLLLWGAAAGIVAVQGVPSRDLLIWVAMLLVQSLPYLAALVMALLSSLPKPREELAGGAEQIGG” is “failed”; for “MSSRPQREKSMTALTQHAPVLEIYQDIANLTSRMLAAANASNWDLVLNHGQEYVCLVERLRELEPGEPLDEAARGMKFDLLVRILENDAAVRDLALPQLARLSDLLGRMKRQQSLLATYSGKANGT” it is “not failed”. Consider “MSSRTVLAPGNDRNSDTHGTLGSGRSSDKGPSWSSRSLGARCRNSIASCPEEQPHVGNYRLLRTIGKGNFAKVKLARHILTGREVAIKIIDKTQLNPSSLQKLFREVRIMKGLNHPNIVKLFEVIETEKTLYLVMEYASAGEVFDYLVSHGRMKEKEARAKFRQIVSAVHYCHQKNIVHRDLKAENLLLDAEANIKIADFGFSNEFTLGSKLDTFCGSPPYAAPELFQGKKYDGPEVDIWSLGVILYTLVSGSLPFDGHNLKELRERVLRGKYRVPFYMSTDCESILRRFLVLNPAKRCTLEQIMKDKWINIGYEGEELKPYTEPEEDFGDTKRIEVMVGMGYTREEIKESLTSQKYNEVTATYLLLGRKTEEGGDRGAPGLALARVRAP”, for which the protein production entry is “failed”. The entry for “MSSRWEGIDEFVAVAESGQFTAAAERLGVSSSHISRQIARLEDRLQTRLLYRSTRRVTLSEAGQTFLQHCQRLQDGREEALRAMGDLASEPKGLLRMTCAVAYGERFIVPLVTRFMALYPQLRVDVELSNHTLDLLHEGMDLAIRLGRLADSRLVATRLAPRRMYLCVSPAYLERYGRPHSLSELARHNCLVGSSDLWALQQDGREISQRVQGNWRCNSGQAVLDAALQGIGLCQLPDYYVLEHLNSGALVSLLEAHQPPNTAVWALYPQQRHLSPKVRRLVDYLKEGLAGLPEYRFG” is “failed”; for “MSSSEIQTKNSEVQVKEMVAHKWDLASETFDTHAGHGIQTQKERDAWKRAFLKVFPGKSLKILDVGCGTGELSLLFAEMGHEVAGIDISGQMLKIAKAKAEALGADITFREGDAENPPFDTSSYDIVFSRHLLWTLPNPKVAVENWNRILRKNGKVVIVDGVWDSGTLGSRARKNAGALLTLLLERKDPRKGHSDYSDELKAQLPHFGGAPLEKVNEYLSNSGFGNIQIFDLKEVRDAQKEKMPLGERVVRSYQYYLICGRK” it is “failed”. The entry for “MSSSRSSWNTRAETGADVPVIRDIVRAAFPTPEEAALVDALRADAGAWIEGLSLVAVDDSDRPVGHALLTRCHIGDSPALCLAPVAVRPEHQNSGAGAAAVRAALAAAGRLGEHHVVVLGHPEYYPRFGFGRASAHGIRLSIDVPDEALMVLTLDAAHPLPAGTVRYAAPFGI” is “failed”; for “MSSSTALAPSTAPNIIQGGMGIGVSSWRLARHVARRGEIGIVSGTGIDSVVVRELQEGDPHDRRQMLADYPDEEIADHLVERFYRPDGLPADEPYDLLNMHPFEPSVRSQRILAAATYTEVRLAAAGHEGMIGMNLLAKLKRYTLPCIYGALLSDIDIVSIGAGIPLEEARQIPKLAAGEPAALRLDVDTSQAPDADDSYAYRFDPADVLDAPPTLDRPLFLPIISSDALARIMDAKLPDRRVDGWVVEGPVAGGHNAPPRNKNYADDGTPLYDERDEADLEAIRSLGKPFYLAGGHGSPEGLRAAHEAGAAGIQVGSLFSLTDESGYPPSTTRRLIRGLHTGEIEVSTEGRVSSTGFPFKVLTADGTLADAEVYERRARICDLGYLREPYLDEEGRLMGRCPAEPVKTYVSRGGAPEETEGRACLCNALMANIGLGQQRGARAEPPLFTGGDALEDLPLGSAEDPQYDADDVLNYLYQDVRPPRVSSPLRRPQPAD” it is “failed”; for “MSSSTERPALPLNECDPHWLRNLWVCVFGVFTTIVAMTLLLPFLPLYVEQLGVDNHAAVVLWSGATYGATFLSAAITAPLWGRLGDRYGRKLMLIRASLGMAVAMSLIGLAQTVWQLLLLRLLAGLLGGYASGATILVATQTPKARSGWALGVLSSGIMAGSLAGPLMGGVLPPLIGIRNTFFLAGGVIFITFLATLLLLREMPRKAPSRATDSALPAVVKLSGEQRRMITCMFVVASLVMFSTMSVEPIITVYLRQLKTDNVTMMAGVVMSATALGSILAASRLGRLADRIGYLPVLTSCLAMTALTLIPQAWVSNVWQLAALRFFMGLALGGLLPCVAAIIRHTVPNEVAGRMLGYSTSSQYLGQVLGPLAGGLLGGYLGIGSVFLGTAMVLAACSIMVGRMDMIRTPASSKL” it is “failed”.

For “MSSSTNDYNDGNNNGVYPLSLYLSSLSGHQDIIHNPYNHQLKASPGHMVSAVPESLIDYMAFKSNNVVNQQGFEFPEVSKEIKKVVKKDRHSKIQTAQGIRDRRVRLSIGIARQFFDLQDMLGFDKASKTLDWLLKKSRKAIKEVVQAKNLNNDDEDFGNIGGDVEQEEEKEEDDNGDKSFVYGLSPGYGEEEVVCEATKAGIRKKKSELRNISSKGLGAKARGKAKERTKEMMAYDNPETASDITQSEIMDPFKRSIVFNEGEDMTHLFYKEPIEEFDNQESILTNMTLPTKMGQSYNQNNGILMLVDQSSSSNYNTFLPQNLDYSYDQNPFHDQTLYVVTDKNFPKGKVWIQDSFVN”, the protein production result is given as “failed”.

Regarding “MSSVGDFEEIILHDLKPYYHVPGAIHSEGITFVKETGTLLWVDIFKGEVHKVEDIEQPESSHSFFSISRANYGKNASIEYPPNPDELKESVGCIFPILDGASQNEIKQVLFGSKFGIGKLDFSKSEWEYVILYSECPELSTDRAYKLRSNDGNVSPDGKYIYVGLMSDFPFDLEPIGCLLRVDLLAHKIELVWNCLLIPNAIHWDESDQKTMYVTDSLNFTIWKCPGGDLLKRDELIDVKNSNNQSFESPEPDGSAIWFSKDGKHSGFLFITVWSTSKVQMFDLTNGKLLKEFILPEQTPRVSCCCFVGKDLFVTTANAEINDAVRTNTDKNGGCIYKIPNVLDGNVPLESTKRQPLH”, the protein production entry was “failed”. In the case of “MSSVLSFALAAWRRLRGYRDSLEVAGGLLAGNLFDTINMVVISMFSNYLVGQRGLLALYPQLSALTGGLLLSLSSRAISNHVLGGAGPEVYLTGLAVSAASGIFLTTVFSTATSIALGLEPVMMVPAALITLLGVLLVLTLLTWIIIVMLLRLGVSPDNVMPAILTSIIDMAVLILAIVAFSMVSRMDEGIYLVAVVTFSLALAFSAAAYDFRLTIDTTFSNFALQVVEMIAGVLLSATAPVLAATGLLPVLPPLNKLAGSVAGSMASAATTSVSLYGHYLDLPSMISTLFKITVGAIPSALYIGVIGYVLASVGEGSVGPQIVLASLLVSIVLSILGSLIAWLLVVVSIRAGLDPDAIAMPLATSLVDLLGVVSLSVVAWILLST” it was “failed”; in that of “MSTASYAFRDNLTMLRRNLLHARRYPSLTLNLLLTPVILLLLFVYVFGNVMSAGINGGHANRADYVDYLVPGILLLTVAMTSLGTAVAVCTDMTEGIMARFRTMAISRASVLIGHVIGSVLQTLMALVLVLGIGLAIGFRPDASPVEWIAAAALMALTSLAMTWLAVGIGLVSPNPEGASNIGTPLVMLPFLSSAFVPVDAMPGWFRWFAEYQPFSPLIETLRGLLLGSGIGTRNAVLAVAWCLGLSLLGYLWSKARFNREPRH”, “failed”.

These data come from a protein production outcome set (Wang et al. 2014).
